Read-outs that look alike come from different tables or passages of the source.
B1: PaCDTΔC (C-terminal-truncated PaCDT) (enzyme, Pseudomonas aeruginosa, UniProt Q01269 26-259, looked up)
chain: QESRLDRILESGVLRVATTGDYKPFSYRTEEGGYAGFDVDMAQRLAESLGAKLVVVPTSWPNLMRDFADDRFDIAMSGISINLERQRQAYFSIPYLRDGKTPITLCSEEARFQTLEQIDQPGVTAIVNPGGTNEKFARANLKKARILVHPDNVTIFQQIVDGKADLMMTDAIEARLQSRLHPELCAVHPQQPFDFAEKAYLLPRDEAFKRYVDQWLHIAEQSGLLRQRMEHWLE
B2: Ws0279 (natural protein)
chain: QKSTLNEIIKRGELRVGLEPGYLPFEMKDKKGNVIGFDVDLAREMAKAMGVKLKLVPTSWDGLIPGLVTEKFDIIISGMTISQERNLRVNFVEPYIVVGQSLLVKKGLEKGVKSYKDLDKPELTLVTKFGVSAEYAAKRLFKNAKLKTYDTEAEAVQEVLNGKADMFIFDLPFNVAFMAQKGQGYLVHLDTSLTYEPLGWAIKKGDPDFLNWLNHFLAQIKHDGSYDELYERWFVL
B3: Cyclohexadienyl dehydratase from Pseudomonas aeruginosa (PaCDT) (enzyme, UniProt Q01269 26-268, looked up)
chain: QESRLDRILESGVLRVATTGDYKPFSYRTEEGGYAGFDVDMAQRLAESLGAKLVVVPTSWPNLMRDFADDRFDIAMSGISINLERQRQAYFSIPYLRDGKTPITLCSEEARFQTLEQIDQPGVTAIVNPGGTNEKFARANLKKARILVHPDNVTIFQQIVDGKADLMMTDAIEARLQSRLHPELCAVHPQQPFDFAEKAYLLPRDEAFKRYVDQWLHIAEQSGLLRQRMEHWLEYRWPTAHGK

Key:
AncCDT‐5 (A5) = assay: discontinuous colorimetric assay of phenylpyruvate formation; format: biochemical, synthetic construct; conditions: 25°C, 50 mM Na2HPO4 substrate buffer, 100 nM enzyme
SEC-MALS = target: the molecule itself; assay: SEC-MALS
[1] = target: the molecule itself

| Molecule | stoichiometry N (SEC-MALS) | further results |
| --- | --- | --- |
| O=C(O)C(=O)CC1(C(=O)O)C=CC(O)C=C1 (stereo not shown) [prephenate] | – | Km (AncCDT‐5 (A5)): 81.2 ± 26.3 µM |
| B1 | 3 | – |
| B2 | – | stoichiometry N [1]: 3 |
| B3 | 3 | – |
